Laboratory results taken from patent US20220282217A1, “COMPOSITIONS AND METHODS FOR PREPARING T CELL COMPOSITIONS AND USES THEREOF” (priority 2019, published 2022).

Legend:
[1] = molecular target: HLA-A02.01 (human); experiment: competition with radiolabeled reference peptide, purified MHC I; conditions: remark: other sources report otherwise
[2] = molecular target: HLA-A01.01 (human); experiment: as above; conditions: remark: other sources report otherwise
[3] = molecular target: HLA-A02.01 (human); experiment: pMHC-I dissociation half-life, 125I-b2m; conditions: remark: other sources report otherwise
[4] = molecular target: HLA-A01.01 (human); experiment: pMHC-I dissociation half-life, 125I-b2m; conditions: remark: other sources report otherwise
[5] = molecular target: HLA-B08.01 (human); experiment: competition with radiolabeled reference peptide, purified MHC I
[6] = molecular target: HLA class I molecule A02.01; experiment: competition with radiolabeled reference peptide on purified MHC I; conditions: remark: other sources report otherwise
[7] = molecular target: HLA class I molecule A03.01; experiment: as above; conditions: remark: other sources report otherwise
[8] = molecular target: HLA class I molecule A02.01; experiment: pMHC-I dissociation half-life, 125I-b2m; conditions: remark: other sources report otherwise
[9] = molecular target: HLA class I molecule A03.01; experiment: pMHC-I dissociation half-life, 125I-b2m; conditions: remark: other sources report otherwise
[10] = molecular target: T1, HLA-A24.02 class I MHC molecule (prepared complex) (human); experiment: displacement of radiolabeled reference peptide from class I MHC, gel filtration; 'Affinity (nM)'; conditions: remark: other sources report otherwise
[11] = molecular target: T2, HLA-A02.01 class I MHC molecule (prepared complex) (human); experiment: as above; conditions: remark: other sources report otherwise
[12] = molecular target: T1, HLA-A24.02 class I MHC molecule …; experiment: dissociation of peptide-MHC-I complex at 37 C, 125I-labelled b2m, scintillation; conditions: remark: other sources report otherwise
[13] = molecular target: T2, HLA-A02.01 class I MHC molecule …; experiment: as above; conditions: remark: other sources report otherwise
[14] = molecular target: HLA class I molecule B08.01; experiment: competition with radiolabeled reference peptide on purified MHC I; conditions: remark: other sources report otherwise
[15] = molecular target: HLA class I molecule B08.01; experiment: pMHC-I dissociation half-life, 125I-b2m; conditions: remark: other sources report otherwise
[16] = molecular target: HLA class I molecule A24.02; experiment: competition with radiolabeled reference peptide on purified MHC I; conditions: remark: other sources report otherwise
[17] = molecular target: HLA class I molecule B07.02; experiment: pMHC-I dissociation half-life, 125I-b2m; conditions: remark: other sources report otherwise
[18] = molecular target: HLA class I molecule A24.02; experiment: pMHC-I dissociation half-life, 125I-b2m; conditions: remark: other sources report otherwise
[19] = molecular target: HLA-B07.02 (human); experiment: competition with radiolabeled reference peptide, purified MHC I; conditions: remark: other sources report otherwise
[20] = molecular target: HLA-B07.02 (human); experiment: pMHC-I dissociation half-life, 125I-b2m; conditions: remark: other sources report otherwise
[21] = molecular target: T3, HLA-A01.01 class I MHC molecule (prepared complex) (human); experiment: displacement of radiolabeled reference peptide from class I MHC, gel filtration; 'Affinity (nM)'; conditions: remark: other sources report otherwise
[22] = molecular target: T3, HLA-A01.01 class I MHC molecule …; experiment: dissociation of peptide-MHC-I complex at 37 C, 125I-labelled b2m, scintillation; conditions: remark: other sources report otherwise
[23] = molecular target: HLA class I molecule B07.02; experiment: competition with radiolabeled reference peptide on purified MHC I; conditions: remark: other sources report otherwise
[24] = molecular target: HLA-A24.02 (human); experiment: competition with radiolabeled reference peptide, purified MHC I; conditions: remark: other sources report otherwise
[25] = molecular target: HLA-A24.02 (human); experiment: pMHC-I dissociation half-life, 125I-b2m; conditions: remark: other sources report otherwise
[26] = molecular target: HLA-A02.01 (human); experiment: competition vs radiolabeled reference peptide on purified MHC I, gel filtration; conditions: remark: other sources report otherwise
[27] = molecular target: HLA-A02.01 (human); experiment: pMHC-I complex dissociation at 37 C, 125I-b2m, half-life; conditions: remark: other sources report otherwise
[28] = molecular target: HLA-A01.01 (human); experiment: as above; conditions: remark: other sources report otherwise
[29] = molecular target: T4, HLA-B07.02 class I MHC molecule (prepared complex) (human); experiment: displacement of radiolabeled reference peptide from class I MHC, gel filtration; 'Affinity (nM)'; conditions: remark: other sources report otherwise
[30] = molecular target: T4, HLA-B07.02 class I MHC molecule …; experiment: dissociation of peptide-MHC-I complex at 37 C, 125I-labelled b2m, scintillation; conditions: remark: other sources report otherwise
[31] = molecular target: HLA-A02:01 class I MHC molecule (human); experiment: competition with a radiolabeled reference peptide for purified MHC I, gel filtration; 'Affinity (nM)'; conditions: remark: other sources report otherwise
[32] = molecular target: HLA-A02:01 class I MHC molecule (human); experiment: pMHC-I dissociation at 37 C, 125I-labeled b2m, scintillation counts; conditions: remark: other sources report otherwise
[33] = molecular target: HLA-B07:02 class I MHC molecule (human); experiment: as above; conditions: remark: other sources report otherwise
[34] = molecular target: HLA-A03.01 (human); experiment: competition with radiolabeled reference peptide, purified MHC I; conditions: remark: other sources report otherwise
[35] = molecular target: HLA-A01.01 (human); experiment: competition vs radiolabeled reference peptide on purified MHC I, gel filtration; conditions: remark: other sources report otherwise
[36] = molecular target: HLA-B07:02 class I MHC molecule (human); experiment: competition with a radiolabeled reference peptide for purified MHC I, gel filtration; 'Affinity (nM)'; conditions: remark: other sources report otherwise

B1: … (peptide)
peptide: WMTETLFDIV
[1]
  IC50: 40 nM
[2]
  IC50: 14400 nM
[3]
  Stability (T1/2 (h)): 0.4 h
[4]
  Stability (T1/2 (h)): 0 h

B2: LKKLRSPL (peptide)
peptide: LKKLRSPL
[5]
  IC50: 0.6 nM

B3: … (peptide)
peptide: VMAGLGSPYV
[6]
  IC50: 102 nM
[7]
  IC50: 11200 nM
[8]
  Stability (T1/2 (h)): 2.9 h
[9]
  Stability (T1/2 (h)): 0 h

B4: EGFR_T790M peptide … (peptide)
peptide: VQLIMQLMPF
[10]
  IC50: 4100 nM
[11]
  IC50: 4940 nM
[12]
  Stability (half-life (hr.)): 0 min
[13]
  Stability (half-life (hr.)): 0 min

B5: EGFR_T790M peptide … (peptide)
peptide: MQLMPFGCLL
[10]
  IC50: 18900 nM
[11]
  IC50: 16.3 nM
[12]
  Stability (half-life (hr.)): 0 min
[13]
  Stability (half-life (hr.)): 22.9 min

B6: … (peptide)
peptide: FELLSTPPL
[6]
  IC50: 225 nM
[14]
  IC50: 3180 nM
[8]
  Stability (T1/2 (h)): 0 h
[15]
  Stability (T1/2 (h)): 0 h

B7: … (peptide)
peptide: SLMPAHWSI
[6]
  IC50: 48 nM
[16]
  IC50: 633 nM
[8]
  Stability (T1/2 (h)): 5 h
[15]
  Stability (T1/2 (h)): 0 h
[17]
  Stability (T1/2 (h)): 0 h
[18]
  Stability (T1/2 (h)): 0.4 h

B8: … (peptide)
peptide: SQIMSLWGL
[6]
  IC50: 62 nM
[16]
  IC50: 8520 nM
[8]
  Stability (T1/2 (h)): 1 h
[15]
  Stability (T1/2 (h)): 0 h
[18]
  Stability (T1/2 (h)): 0 h

B9: … (peptide)
peptide: LPRKPTRAA
[19]
  IC50: 8 nM
[20]
  Stability (T1/2 (h)): 5.5 h

B10: EGFR_T790M peptide … (peptide)
peptide: CLTSTVQLIM
[11]
  IC50: 537 nM
[21]
  IC50: 8280 nM
[13]
  Stability (half-life (hr.)): 0 min
[22]
  Stability (half-life (hr.)): 0 min

B11: … (peptide)
peptide: YVMAYVMAGV
[6]
  IC50: 57 nM
[23]
  IC50: 52600 nM
[8]
  Stability (T1/2 (h)): 20.9 h
[15]
  Stability (T1/2 (h)): 0 h
[17]
  Stability (T1/2 (h)): 0 h

B12: … (peptide)
peptide: YVMAYVMAG
[6]
  IC50: 11500 nM
[23]
  IC50: 170 nM
[8]
  Stability (T1/2 (h)): 2.5 h
[15]
  Stability (T1/2 (h)): 1.2 h
[17]
  Stability (T1/2 (h)): 0 h

B13: … (peptide)
peptide: VLHECNSLYI
[6]
  IC50: 10 nM
[7]
  IC50: 10500 nM
[8]
  Stability (T1/2 (h)): 5.1 h
[9]
  Stability (T1/2 (h)): 0 h

B14: … (peptide)
peptide: MLTDSLFLPI
[2]
  IC50: 7670 nM
[3]
  Stability (T1/2 (h)): 1 h
[4]
  Stability (T1/2 (h)): 0 h

B15: … (peptide)
peptide: MNWRPILTI
[24]
  IC50: 6980 nM
[1]
  IC50: 516 nM
[25]
  Stability (T1/2 (h)): 0.2 h
[3]
  Stability (T1/2 (h)): 3.8 h

B16: … (peptide)
peptide: LSLMPAHWSI
[6]
  IC50: 164 nM
[16]
  IC50: 12400 nM
[8]
  Stability (T1/2 (h)): 0.4 h
[15]
  Stability (T1/2 (h)): 0 h
[18]
  Stability (T1/2 (h)): 0 h

B17: … (peptide)
peptide: CLTSTVQLIM
[26]
  IC50: 716 nM
[27]
  Stability (T1/2 (h)): 0 h
[28]
  Stability (T1/2 (h)): 0 h

B18: EGFR_T790M peptide … (peptide)
peptide: MQLMPFGCL
[11]
  IC50: 116 nM
[29]
  IC50: 1590 nM
[13]
  Stability (half-life (hr.)): 22.1 min
[30]
  Stability (half-life (hr.)): 0 h

B19: … (peptide)
peptide: SLGNHLCPL
[14]
  IC50: 6 nM
[23]
  IC50: 2590 nM
[8]
  Stability (T1/2 (h)): 3.5 h
[15]
  Stability (T1/2 (h)): 0.5 h
[17]
  Stability (T1/2 (h)): 0 h

B20: BTK_C481S peptide … (peptide)
peptide: MANGSLLNYL
[31]
  IC50: 1010 nM
[32]
  Stability (half-life (hr.)): 0 min
[33]
  Stability (half-life (hr.)): 0 h

B21: BTK_C481S peptide … (peptide)
peptide: YMANGSLLN
[31]
  IC50: 4000 nM
[32]
  Stability (half-life (hr.)): 0 min

B22: … (peptide)
peptide: MLLRLNLRKM
[34]
  IC50: 117 nM
[1]
  IC50: 2510 nM

B23: … (peptide)
peptide: LTSTVQLIM
[35]
  IC50: 2890 nM

B24: EGFR, T790M peptide … (peptide)
peptide: LTSTVQLIM
[21]
  IC50: 2890 nM
[22]
  Stability (half-life (hr.)): 6.22 min

B25: BTK_C481S peptide … (peptide)
peptide: SLLNYLREM
[31]
  IC50: 67.7 nM
[36]
  IC50: 866 nM
[32]
  Stability (half-life (hr.)): 183 min
[33]
  Stability (half-life (hr.)): 0 h

B26: … (peptide)
peptide: YLGNHMNIA
[6]
  IC50: 117 nM
[14]
  IC50: 872 nM
[8]
  Stability (T1/2 (h)): 0.6 h
[15]
  Stability (T1/2 (h)): 0 h

B27: EGFR_T790M peptide … (peptide)
peptide: QLIMQLMPF
[11]
  IC50: 193 nM
[12]
  Stability (half-life (hr.)): 22.1 min
[13]
  Stability (half-life (hr.)): 20.4 min

B28: EGFR_T790M peptide … (peptide)
peptide: IMQLMPFGCL
[10]
  IC50: 14100 nM
[11]
  IC50: 653 nM
[12]
  Stability (half-life (hr.)): 0 min
[13]
  Stability (half-life (hr.)): 30.9 min

B29: … (peptide)
peptide: YMFLKAESKI
[7]
  IC50: 21100 nM
[8]
  Stability (T1/2 (h)): 0.6 h
[9]
  Stability (T1/2 (h)): 0 h
[15]
  Stability (T1/2 (h)): 0.4 h
